The target in assay [1] is mouse α-synuclein pre-formed fibrils (mouse) (UniProt O55042). As to the kind of experiment: other fluorescence titration.
Assay [2] deals with mouse α-synuclein type B* oligomers (mouse) (UniProt O55042). Briefly: other fluorescence titration.

Results on one substance are retold here after doi:10.1101/2023.11.06.565731.

In assay [1], “BODIPY630/650-labelled PSMα3 peptide probe P1” displayed a dissociation constant (Kd) of 1400 nM, a fold increase of the emission peak intensity of 16 fold and a fold increase of the excitation peak intensity of 7.6 fold. Also, in assay [2], the fold increase of the emission peak intensity stood at 3 fold and the fold increase of the excitation peak intensity is 1.8 fold.
